Results from the supplement of paper PMC11811203.

B1: THAP1; numbered along this chain (parent)
chain: MVQSCSAYGCKNRYDKDKPVSFHKFPLTRPSLCKEWEAAVRRKNFKPTKYSSICSEHFTPDCFKRECNNKLLKENAVPTIFLCTEPHDKKEDLLEPQEQLPPPPLPPPVSQVDAAIGLLMPPLQTPVNLSVFCDHNYTVEDTMHQRKRIHQLEQQVEKLRKKLKTAQQRCRRQERQLEKLKEVVHFQKEKDDVSERGYVILPNDYFEIVEVPA

Variants of: B1
Assay: THAP1 transcriptional activity (GFP+/GFP- enrichment relative to wild-type constructs) (ratio to WT); higher = more THAP1 activity (PSMB5 reporter activation)
Conditions: with PSMB5 promoter-GFP reporter
Procedure: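 Deep mutational scan of human THAP1. Site-saturation single amino acid variant library (residues 2-213) was expressed by lentivirus at MOI ~0.3 in THAP1-knockout HEK-293T cells carrying an endogenous PSMB5 promoter-GFP knock-in reporter. Five days post-transduction, BFP+ cells were FACS-sorted into GFP dim and GFP bright populations and variants were counted by Illumina sequencing. Activity is the GFP-bright/GFP-dim read fold change, mean of 2 replicates, divided by the mean fold change of wild-type (synonymous) constructs in the same screen pool; WT = 1.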

First: MEQSCSAYGCKNRYDKDKPVSFHKFPLTRPSLCKEWEAAVRRKNFKPTKYSSICSEHFTPDCFKRECNNKLLKENAVPTIFLCTEPHDKKEDLLEPQEQLPPPPLPPPVSQVDAAIGLLMPPLQTPVNLSVFCDHNYTVEDTMHQRKRIHQLEQQVEKLRKKLKTAQQRCRRQERQLEKLKEVVHFQKEKDDVSERGYVILPNDYFEIVEVPA [V2E]
Second: MYQSCSAYGCKNRYDKDKPVSFHKFPLTRPSLCKEWEAAVRRKNFKPTKYSSICSEHFTPDCFKRECNNKLLKENAVPTIFLCTEPHDKKEDLLEPQEQLPPPPLPPPVSQVDAAIGLLMPPLQTPVNLSVFCDHNYTVEDTMHQRKRIHQLEQQVEKLRKKLKTAQQRCRRQERQLEKLKEVVHFQKEKDDVSERGYVILPNDYFEIVEVPA [V2Y]
The THAP1 transcriptional activity of the first is lower: 0.154 for the first, 0.16 for the second.

First: MNQSCSAYGCKNRYDKDKPVSFHKFPLTRPSLCKEWEAAVRRKNFKPTKYSSICSEHFTPDCFKRECNNKLLKENAVPTIFLCTEPHDKKEDLLEPQEQLPPPPLPPPVSQVDAAIGLLMPPLQTPVNLSVFCDHNYTVEDTMHQRKRIHQLEQQVEKLRKKLKTAQQRCRRQERQLEKLKEVVHFQKEKDDVSERGYVILPNDYFEIVEVPA [V2N]
Second: MLQSCSAYGCKNRYDKDKPVSFHKFPLTRPSLCKEWEAAVRRKNFKPTKYSSICSEHFTPDCFKRECNNKLLKENAVPTIFLCTEPHDKKEDLLEPQEQLPPPPLPPPVSQVDAAIGLLMPPLQTPVNLSVFCDHNYTVEDTMHQRKRIHQLEQQVEKLRKKLKTAQQRCRRQERQLEKLKEVVHFQKEKDDVSERGYVILPNDYFEIVEVPA [V2L]
The THAP1 transcriptional activity of the first is lower: 0.157 for the first, 0.214 for the second.

Going from MMQSCSAYGCKNRYDKDKPVSFHKFPLTRPSLCKEWEAAVRRKNFKPTKYSSICSEHFTPDCFKRECNNKLLKENAVPTIFLCTEPHDKKEDLLEPQEQLPPPPLPPPVSQVDAAIGLLMPPLQTPVNLSVFCDHNYTVEDTMHQRKRIHQLEQQVEKLRKKLKTAQQRCRRQERQLEKLKEVVHFQKEKDDVSERGYVILPNDYFEIVEVPA [V2M] to MDQSCSAYGCKNRYDKDKPVSFHKFPLTRPSLCKEWEAAVRRKNFKPTKYSSICSEHFTPDCFKRECNNKLLKENAVPTIFLCTEPHDKKEDLLEPQEQLPPPPLPPPVSQVDAAIGLLMPPLQTPVNLSVFCDHNYTVEDTMHQRKRIHQLEQQVEKLRKKLKTAQQRCRRQERQLEKLKEVVHFQKEKDDVSERGYVILPNDYFEIVEVPA [V2D], the THAP1 transcriptional activity falls from 0.183 to 0.178.

Going from MKQSCSAYGCKNRYDKDKPVSFHKFPLTRPSLCKEWEAAVRRKNFKPTKYSSICSEHFTPDCFKRECNNKLLKENAVPTIFLCTEPHDKKEDLLEPQEQLPPPPLPPPVSQVDAAIGLLMPPLQTPVNLSVFCDHNYTVEDTMHQRKRIHQLEQQVEKLRKKLKTAQQRCRRQERQLEKLKEVVHFQKEKDDVSERGYVILPNDYFEIVEVPA [V2K] to MFQSCSAYGCKNRYDKDKPVSFHKFPLTRPSLCKEWEAAVRRKNFKPTKYSSICSEHFTPDCFKRECNNKLLKENAVPTIFLCTEPHDKKEDLLEPQEQLPPPPLPPPVSQVDAAIGLLMPPLQTPVNLSVFCDHNYTVEDTMHQRKRIHQLEQQVEKLRKKLKTAQQRCRRQERQLEKLKEVVHFQKEKDDVSERGYVILPNDYFEIVEVPA [V2F], the THAP1 transcriptional activity rises from 0.0614 to 0.161.

Compared with MSQSCSAYGCKNRYDKDKPVSFHKFPLTRPSLCKEWEAAVRRKNFKPTKYSSICSEHFTPDCFKRECNNKLLKENAVPTIFLCTEPHDKKEDLLEPQEQLPPPPLPPPVSQVDAAIGLLMPPLQTPVNLSVFCDHNYTVEDTMHQRKRIHQLEQQVEKLRKKLKTAQQRCRRQERQLEKLKEVVHFQKEKDDVSERGYVILPNDYFEIVEVPA [V2S], MHQSCSAYGCKNRYDKDKPVSFHKFPLTRPSLCKEWEAAVRRKNFKPTKYSSICSEHFTPDCFKRECNNKLLKENAVPTIFLCTEPHDKKEDLLEPQEQLPPPPLPPPVSQVDAAIGLLMPPLQTPVNLSVFCDHNYTVEDTMHQRKRIHQLEQQVEKLRKKLKTAQQRCRRQERQLEKLKEVVHFQKEKDDVSERGYVILPNDYFEIVEVPA [V2H] is lower in THAP1 transcriptional activity: 0.297 for the first, 0.247 for the second.

Compared with MTQSCSAYGCKNRYDKDKPVSFHKFPLTRPSLCKEWEAAVRRKNFKPTKYSSICSEHFTPDCFKRECNNKLLKENAVPTIFLCTEPHDKKEDLLEPQEQLPPPPLPPPVSQVDAAIGLLMPPLQTPVNLSVFCDHNYTVEDTMHQRKRIHQLEQQVEKLRKKLKTAQQRCRRQERQLEKLKEVVHFQKEKDDVSERGYVILPNDYFEIVEVPA [V2T], MGQSCSAYGCKNRYDKDKPVSFHKFPLTRPSLCKEWEAAVRRKNFKPTKYSSICSEHFTPDCFKRECNNKLLKENAVPTIFLCTEPHDKKEDLLEPQEQLPPPPLPPPVSQVDAAIGLLMPPLQTPVNLSVFCDHNYTVEDTMHQRKRIHQLEQQVEKLRKKLKTAQQRCRRQERQLEKLKEVVHFQKEKDDVSERGYVILPNDYFEIVEVPA [V2G] is lower in THAP1 transcriptional activity: 0.21 for the first, 0.0831 for the second.

First: MWQSCSAYGCKNRYDKDKPVSFHKFPLTRPSLCKEWEAAVRRKNFKPTKYSSICSEHFTPDCFKRECNNKLLKENAVPTIFLCTEPHDKKEDLLEPQEQLPPPPLPPPVSQVDAAIGLLMPPLQTPVNLSVFCDHNYTVEDTMHQRKRIHQLEQQVEKLRKKLKTAQQRCRRQERQLEKLKEVVHFQKEKDDVSERGYVILPNDYFEIVEVPA [V2W]
Second: MRQSCSAYGCKNRYDKDKPVSFHKFPLTRPSLCKEWEAAVRRKNFKPTKYSSICSEHFTPDCFKRECNNKLLKENAVPTIFLCTEPHDKKEDLLEPQEQLPPPPLPPPVSQVDAAIGLLMPPLQTPVNLSVFCDHNYTVEDTMHQRKRIHQLEQQVEKLRKKLKTAQQRCRRQERQLEKLKEVVHFQKEKDDVSERGYVILPNDYFEIVEVPA [V2R]
The THAP1 transcriptional activity of the first is lower: 0.109 for the first, 0.122 for the second.

Compared with MPQSCSAYGCKNRYDKDKPVSFHKFPLTRPSLCKEWEAAVRRKNFKPTKYSSICSEHFTPDCFKRECNNKLLKENAVPTIFLCTEPHDKKEDLLEPQEQLPPPPLPPPVSQVDAAIGLLMPPLQTPVNLSVFCDHNYTVEDTMHQRKRIHQLEQQVEKLRKKLKTAQQRCRRQERQLEKLKEVVHFQKEKDDVSERGYVILPNDYFEIVEVPA [V2P], MCQSCSAYGCKNRYDKDKPVSFHKFPLTRPSLCKEWEAAVRRKNFKPTKYSSICSEHFTPDCFKRECNNKLLKENAVPTIFLCTEPHDKKEDLLEPQEQLPPPPLPPPVSQVDAAIGLLMPPLQTPVNLSVFCDHNYTVEDTMHQRKRIHQLEQQVEKLRKKLKTAQQRCRRQERQLEKLKEVVHFQKEKDDVSERGYVILPNDYFEIVEVPA [V2C] is lower in THAP1 transcriptional activity: 0.71 for the first, 0.162 for the second.

First: MIQSCSAYGCKNRYDKDKPVSFHKFPLTRPSLCKEWEAAVRRKNFKPTKYSSICSEHFTPDCFKRECNNKLLKENAVPTIFLCTEPHDKKEDLLEPQEQLPPPPLPPPVSQVDAAIGLLMPPLQTPVNLSVFCDHNYTVEDTMHQRKRIHQLEQQVEKLRKKLKTAQQRCRRQERQLEKLKEVVHFQKEKDDVSERGYVILPNDYFEIVEVPA [V2I]
Second: MQQSCSAYGCKNRYDKDKPVSFHKFPLTRPSLCKEWEAAVRRKNFKPTKYSSICSEHFTPDCFKRECNNKLLKENAVPTIFLCTEPHDKKEDLLEPQEQLPPPPLPPPVSQVDAAIGLLMPPLQTPVNLSVFCDHNYTVEDTMHQRKRIHQLEQQVEKLRKKLKTAQQRCRRQERQLEKLKEVVHFQKEKDDVSERGYVILPNDYFEIVEVPA [V2Q]
The THAP1 transcriptional activity of the first is lower: 0.157 for the first, 0.178 for the second.

Compared with MVISCSAYGCKNRYDKDKPVSFHKFPLTRPSLCKEWEAAVRRKNFKPTKYSSICSEHFTPDCFKRECNNKLLKENAVPTIFLCTEPHDKKEDLLEPQEQLPPPPLPPPVSQVDAAIGLLMPPLQTPVNLSVFCDHNYTVEDTMHQRKRIHQLEQQVEKLRKKLKTAQQRCRRQERQLEKLKEVVHFQKEKDDVSERGYVILPNDYFEIVEVPA [Q3I], MVLSCSAYGCKNRYDKDKPVSFHKFPLTRPSLCKEWEAAVRRKNFKPTKYSSICSEHFTPDCFKRECNNKLLKENAVPTIFLCTEPHDKKEDLLEPQEQLPPPPLPPPVSQVDAAIGLLMPPLQTPVNLSVFCDHNYTVEDTMHQRKRIHQLEQQVEKLRKKLKTAQQRCRRQERQLEKLKEVVHFQKEKDDVSERGYVILPNDYFEIVEVPA [Q3L] is lower in THAP1 transcriptional activity: 0.678 for the first, 0.354 for the second.

Compared with MVGSCSAYGCKNRYDKDKPVSFHKFPLTRPSLCKEWEAAVRRKNFKPTKYSSICSEHFTPDCFKRECNNKLLKENAVPTIFLCTEPHDKKEDLLEPQEQLPPPPLPPPVSQVDAAIGLLMPPLQTPVNLSVFCDHNYTVEDTMHQRKRIHQLEQQVEKLRKKLKTAQQRCRRQERQLEKLKEVVHFQKEKDDVSERGYVILPNDYFEIVEVPA [Q3G], MVESCSAYGCKNRYDKDKPVSFHKFPLTRPSLCKEWEAAVRRKNFKPTKYSSICSEHFTPDCFKRECNNKLLKENAVPTIFLCTEPHDKKEDLLEPQEQLPPPPLPPPVSQVDAAIGLLMPPLQTPVNLSVFCDHNYTVEDTMHQRKRIHQLEQQVEKLRKKLKTAQQRCRRQERQLEKLKEVVHFQKEKDDVSERGYVILPNDYFEIVEVPA [Q3E] is lower in THAP1 transcriptional activity: 0.159 for the first, 0.155 for the second.

First: MVKSCSAYGCKNRYDKDKPVSFHKFPLTRPSLCKEWEAAVRRKNFKPTKYSSICSEHFTPDCFKRECNNKLLKENAVPTIFLCTEPHDKKEDLLEPQEQLPPPPLPPPVSQVDAAIGLLMPPLQTPVNLSVFCDHNYTVEDTMHQRKRIHQLEQQVEKLRKKLKTAQQRCRRQERQLEKLKEVVHFQKEKDDVSERGYVILPNDYFEIVEVPA [Q3K]
Second: MVASCSAYGCKNRYDKDKPVSFHKFPLTRPSLCKEWEAAVRRKNFKPTKYSSICSEHFTPDCFKRECNNKLLKENAVPTIFLCTEPHDKKEDLLEPQEQLPPPPLPPPVSQVDAAIGLLMPPLQTPVNLSVFCDHNYTVEDTMHQRKRIHQLEQQVEKLRKKLKTAQQRCRRQERQLEKLKEVVHFQKEKDDVSERGYVILPNDYFEIVEVPA [Q3A]
The THAP1 transcriptional activity of the first is lower: 0.266 for the first, 0.849 for the second.

First: MVHSCSAYGCKNRYDKDKPVSFHKFPLTRPSLCKEWEAAVRRKNFKPTKYSSICSEHFTPDCFKRECNNKLLKENAVPTIFLCTEPHDKKEDLLEPQEQLPPPPLPPPVSQVDAAIGLLMPPLQTPVNLSVFCDHNYTVEDTMHQRKRIHQLEQQVEKLRKKLKTAQQRCRRQERQLEKLKEVVHFQKEKDDVSERGYVILPNDYFEIVEVPA [Q3H]
Second: MVCSCSAYGCKNRYDKDKPVSFHKFPLTRPSLCKEWEAAVRRKNFKPTKYSSICSEHFTPDCFKRECNNKLLKENAVPTIFLCTEPHDKKEDLLEPQEQLPPPPLPPPVSQVDAAIGLLMPPLQTPVNLSVFCDHNYTVEDTMHQRKRIHQLEQQVEKLRKKLKTAQQRCRRQERQLEKLKEVVHFQKEKDDVSERGYVILPNDYFEIVEVPA [Q3C]
The THAP1 transcriptional activity of the first is higher: 1.01 for the first, 0.269 for the second.

First: MVFSCSAYGCKNRYDKDKPVSFHKFPLTRPSLCKEWEAAVRRKNFKPTKYSSICSEHFTPDCFKRECNNKLLKENAVPTIFLCTEPHDKKEDLLEPQEQLPPPPLPPPVSQVDAAIGLLMPPLQTPVNLSVFCDHNYTVEDTMHQRKRIHQLEQQVEKLRKKLKTAQQRCRRQERQLEKLKEVVHFQKEKDDVSERGYVILPNDYFEIVEVPA [Q3F]
Second: MVDSCSAYGCKNRYDKDKPVSFHKFPLTRPSLCKEWEAAVRRKNFKPTKYSSICSEHFTPDCFKRECNNKLLKENAVPTIFLCTEPHDKKEDLLEPQEQLPPPPLPPPVSQVDAAIGLLMPPLQTPVNLSVFCDHNYTVEDTMHQRKRIHQLEQQVEKLRKKLKTAQQRCRRQERQLEKLKEVVHFQKEKDDVSERGYVILPNDYFEIVEVPA [Q3D]
The THAP1 transcriptional activity of the first is higher: 0.143 for the first, 0.119 for the second.
